Here are results for one molecule from patent publication US20230303690A1 (published 2023).

In the experiment the target is T1, human LAG3 expressed on cells (human, UniProt P18627 23-525).
T1 sequence (looked up): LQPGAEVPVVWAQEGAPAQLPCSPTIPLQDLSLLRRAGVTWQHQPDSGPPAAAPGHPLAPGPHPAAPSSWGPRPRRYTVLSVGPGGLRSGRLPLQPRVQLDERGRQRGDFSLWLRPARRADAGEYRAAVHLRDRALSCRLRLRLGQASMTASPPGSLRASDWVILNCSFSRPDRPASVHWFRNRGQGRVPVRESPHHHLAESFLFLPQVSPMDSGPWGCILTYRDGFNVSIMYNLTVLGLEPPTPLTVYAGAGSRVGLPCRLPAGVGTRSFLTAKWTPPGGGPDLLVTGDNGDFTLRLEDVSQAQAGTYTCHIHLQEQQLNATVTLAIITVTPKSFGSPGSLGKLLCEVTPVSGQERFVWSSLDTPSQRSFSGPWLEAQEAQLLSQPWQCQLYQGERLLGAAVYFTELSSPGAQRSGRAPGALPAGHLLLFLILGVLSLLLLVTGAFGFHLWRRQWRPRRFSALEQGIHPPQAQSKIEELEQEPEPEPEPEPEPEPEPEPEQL
Kind of experiment: cell-based or functional assay.

B1: combination of sdAbs 25 and 27 (other)
VHH 1: QLQLVESGGGLVQAGGSLRLSCAASGSIESFSFMGWYRQAPGKQRELVAGFTGAASLSFSTYTDAVKGRFTISRDNAKNTVYLQMNSLKPEDTAVYFCNVDPWSQSWPGRYWGQGTQVTVSS
VHH 2: QVQLVESGGGLVQPGGSLRLSCAASGFTLDYYAIGWFRQAPGKEREGVSCIRSSDGSTYYADSVKGRFTISSDNTKNTVYLQMNSLKPEDTAVYYCATDRYSDCRGPYENWGQGTQVTVSS
As to B1, the “IL-2, % of BMS, at 0.005080526 ug/mL” value was 0%; the “IL-2, % of BMS, at 0.015241579 ug/mL” value came to 4.21%; the “IL-2, % of BMS, at 0.045724737 ug/mL” value was -1.96%; the “IL-2, % of BMS, at 0.137174211 ug/mL” value is 10.8%. Further, the “IL-2, % of BMS, at 0.411522634 ug/mL” value came out at 39%; the “IL-2, % of BMS, at 1.234567901 ug/mL” value turned out to be 51.2%; the “IL-2, % of BMS, at 3.703703704 ug/mL” value stood at 62.3%; the “IL-2, % of BMS, at 11.11111111 ug/mL” value amounted to 69.3%. Further, the “IL-2, % of BMS, at 33.33333333 ug/mL” value came out at 79.8% and the “IL-2, % of BMS, at 100 ug/mL” value was 83%.
